Residue numbers refer to the chain shown, from its start. Numbers in names are those of the source.
T1: human Fcγ receptor hFcgRIIb (human, UniProt P31994 43-217, limits assumed)
T1 construct: Construct used in the SPR assay is not described; also called FcγRIIb; FcγIIB
T1 sequence: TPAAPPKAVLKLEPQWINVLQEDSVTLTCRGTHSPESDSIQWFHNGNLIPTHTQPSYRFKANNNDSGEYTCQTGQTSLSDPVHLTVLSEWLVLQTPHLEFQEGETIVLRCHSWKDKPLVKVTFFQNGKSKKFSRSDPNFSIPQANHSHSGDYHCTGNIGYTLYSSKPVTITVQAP

T2: human Fcγ receptor hFcgRIIa (H) (human, UniProt P12318 36-217)
T2 construct: also called FcγRIIa (type H); FcγIIA
T2 sequence: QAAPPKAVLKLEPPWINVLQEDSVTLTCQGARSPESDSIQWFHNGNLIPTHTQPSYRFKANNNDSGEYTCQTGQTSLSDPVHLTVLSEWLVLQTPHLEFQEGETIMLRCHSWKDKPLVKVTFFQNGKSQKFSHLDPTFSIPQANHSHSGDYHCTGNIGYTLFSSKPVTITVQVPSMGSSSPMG

T3: human Fcγ receptor hFcgRIIa (R) (human, UniProt P12318 36-217)
T3 construct: also called FcγRIIa (type R); FcγIIA
T3 chain: T2 sequence with H133R

B1: TS20 (antibody)
heavy: QVQLQESGPGLVRPSQTLSLTCTVSGYSITSDHAWSWVRQPPGRGLEWIGYISYSGITTYNPSLKSRVTMLRDTSKNQFSLRLSSVTAADTAVYYCARSLARTTAMDYWGQGSLVTVSSASTKGPSVFPLAPSSKSTSGGTAALGCLVKDYFPEPVTVSWNSGALTSGVHTFPAVLQSSGLYSLSSVVTVPSSSLGTQTYICNVNHKPSNTKVDKKVEPKSCDKTHTCPPCPAPELLGGPSVFLFPPKPKDTLMISRTPEVTCVVVDVSHEDPEVKFNWYVDGVEVHNAKTKPREEMYNSTYRVVSVLTVLHQDWLNGKEYKCKVSNSALPHPIEKTISKAKGQPREPQVYTLPPSRDELTKNQVSLTCLVKGFYPSDIAVEWESNGQPENNYKTTPPVLDSDGSFFLYSKLTVDKSRWQQGNVFSCSVMHEALHNHYTQKSLSLSP
light: not shown
notes: anti-IL6R IgG1, G1d with Q295M/K326S/A330H (EU)
B2: TS27 (antibody)
heavy: B1 heavy with M297L, S328A
light: not shown
notes: anti-IL6R IgG1, G1d with Q295L/K326A/A330H (EU)
B3: TS39 (antibody)
heavy: B1 heavy with L236K, L237R, S241K, Y298G, S300G, N327H, S328K, H332A
light: not shown
notes: anti-IL6R IgG1, G1d with L234K/L235R/S239K/Q295M/Y296G/S298G/N325H (EU)
B4: TS28 (antibody)
heavy: B1 heavy with L236K, L237K, S241K, H270K, D272F, Y298G, S300G, N327G, S328K, H332A
light: not shown
notes: anti-IL6R IgG1, G1d with L234K/L235K/S239K/H268K/D270F/Q295M/Y296G/S298G/N325G (EU)
B5: TS37 (antibody)
heavy: B1 heavy with L236K, L237R, S241K, H270K, D272F, Y298G, S300G, N327H, S328K, H332A
light: not shown
notes: anti-IL6R IgG1, G1d with L234K/L235R/S239K/H268K/D270F/Q295M/Y296G/S298G/N325H (EU)
B6: TS32 (antibody)
heavy: B1 heavy with L236K, L237K, H270K, D272F, Y298G, S300G, N327G, S328K, H332A
light: not shown
notes: anti-IL6R IgG1, G1d with L234K/L235K/H268K/D270F/Q295M/Y296G/S298G/N325G (EU)
B7: TS34 (antibody)
heavy: B1 heavy with L236K, L237K, Y298G, S300G, N327G, S328K, H332A
light: not shown
notes: anti-IL6R IgG1, G1d with L234K/L235K/Q295M/Y296G/S298G/N325G (EU)
B8: TS43 (antibody)
heavy: B1 heavy with L236K, L237R, Y298G, S300G, N327H, S328K, H332A
light: not shown
notes: anti-IL6R IgG1, G1d with L234K/L235R/Q295M/Y296G/S298G/N325H (EU)
B9: TS29 (antibody)
heavy: B1 heavy with L236K, L237K, S241K, H270K, D272F, Y298G, S300G, N327H, S328K, H332A
light: not shown
notes: anti-IL6R IgG1, G1d with L234K/L235K/S239K/H268K/D270F/Q295M/Y296G/S298G/N325H (EU)
B10: TS42 (antibody)
heavy: B1 heavy with L236K, L237R, Y298G, S300G, N327G, S328K, H332A
light: not shown
notes: anti-IL6R IgG1, G1d with L234K/L235R/Q295M/Y296G/S298G/N325G (EU)
B11: TS25 (antibody)
heavy: B1 heavy with S328A
light: not shown
notes: anti-IL6R IgG1, G1d with Q295M/K326A/A330H (EU)
B12: TS36 (antibody)
heavy: B1 heavy with L236K, L237R, S241K, H270K, D272F, Y298G, S300G, N327G, S328K, H332A
light: not shown
notes: anti-IL6R IgG1, G1d with L234K/L235R/S239K/H268K/D270F/Q295M/Y296G/S298G/N325G (EU)
B13: TS38 (antibody)
heavy: B1 heavy with L236K, L237R, S241K, Y298G, S300G, N327G, S328K, H332A
light: not shown
notes: anti-IL6R IgG1, G1d with L234K/L235R/S239K/Q295M/Y296G/S298G/N325G (EU)
B14: TS31 (antibody)
heavy: B1 heavy with L236K, L237K, S241K, Y298G, S300G, N327H, S328K, H332A
light: not shown
notes: anti-IL6R IgG1, G1d with L234K/L235K/S239K/Q295M/Y296G/S298G/N325H (EU)
B15: TS33 (antibody)
heavy: B1 heavy with L236K, L237K, H270K, D272F, Y298G, S300G, N327H, S328K, H332A
light: not shown
notes: anti-IL6R IgG1, G1d with L234K/L235K/H268K/D270F/Q295M/Y296G/S298G/N325H (EU)
B16: TS30 (antibody)
heavy: B1 heavy with L236K, L237K, S241K, Y298G, S300G, N327G, S328K, H332A
light: not shown
notes: anti-IL6R IgG1, G1d with L234K/L235K/S239K/Q295M/Y296G/S298G/N325G (EU)
B17: TS26 (antibody)
heavy: B1 heavy with M297L, H332Y
light: not shown
notes: anti-IL6R IgG1, G1d with Q295L/K326S/A330Y (EU)
B18: TS41 (antibody)
heavy: B1 heavy with L236K, L237R, H270K, D272F, Y298G, S300G, N327H, S328K, H332A
light: not shown
notes: anti-IL6R IgG1, G1d with L234K/L235R/H268K/D270F/Q295M/Y296G/S298G/N325H (EU)
B19: TS22 (antibody)
heavy: B1 heavy with M297L
light: not shown
notes: anti-IL6R IgG1, G1d with Q295L/K326S/A330H (EU)
B20: TS40 (antibody)
heavy: B1 heavy with L236K, L237R, H270K, D272F, Y298G, S300G, N327G, S328K, H332A
light: not shown
notes: anti-IL6R IgG1, G1d with L234K/L235R/H268K/D270F/Q295M/Y296G/S298G/N325G (EU)
B21: TS21 (antibody)
heavy: B1 heavy with S328A, H332Y
light: not shown
notes: anti-IL6R IgG1, G1d with Q295M/K326A/A330Y (EU)
B22: TS35 (antibody)
heavy: B1 heavy with L236K, L237K, Y298G, S300G, N327H, S328K, H332A
light: not shown
notes: anti-IL6R IgG1, G1d with L234K/L235K/Q295M/Y296G/S298G/N325H (EU)
B23: TS24 (antibody)
heavy: B1 heavy with H332Y
light: not shown
notes: anti-IL6R IgG1, G1d with Q295M/K326S/A330Y (EU)
B24: TS23 (antibody)
heavy: B1 heavy with M297L, S328A, H332Y
light: not shown
notes: anti-IL6R IgG1, G1d with Q295L/K326A/A330Y (EU)

molecular target: T4, human Fcγ receptor hFcgRIa (human, UniProt P12314 16-292, limits assumed); assay: SPR, antibody captured on Protein A
T4 construct: Construct used in the SPR assay is not described; also called hFcγRIa; FcγI
T4 sequence (P12314 16-292 limits assumed): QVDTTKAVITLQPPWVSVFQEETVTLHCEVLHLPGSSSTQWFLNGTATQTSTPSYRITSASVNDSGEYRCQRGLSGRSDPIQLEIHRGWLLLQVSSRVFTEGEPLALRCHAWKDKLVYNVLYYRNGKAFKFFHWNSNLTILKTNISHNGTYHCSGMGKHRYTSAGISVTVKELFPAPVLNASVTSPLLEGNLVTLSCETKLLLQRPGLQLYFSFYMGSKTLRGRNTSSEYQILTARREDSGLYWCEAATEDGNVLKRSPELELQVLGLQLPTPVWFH
Procedure: (§1) Furthermore, binding ability to hFcgRs was measured by the method described in Reference Example 3.
(§2) Interactions between antibodies and hFcgRs (hFcgRIa, hFcgRIIa(R), hFcgRIIa(H), hFcgRIIb, hFcgRIIIa(F), and hFcgRIIIa(V)) were analyzed using Biacore T100 (GE Healthcare). HBS-EP+(GE Healthcare) was used for the running buffer, and the measurement temperature was set at 25° C. Protein A (Invitrogen) was immobilized by the amino coupling method, and an antibody of interest was captured thereon. Then, hFcγR solutions diluted using the running buffer were injected to allow interaction with the captured antibody at a flow rate of 30 μL/min for five minutes for hFcγRIa, and at a flow rate of 5 μL/min for one minute for the other hFcγRs. […] Since the hFcγR binding level depends on the amount of captured antibodies, the FcgR-binding levels were corrected so that the capture level of each antibody would be 200 RU (resonance unit) for hFcgRIa and 1000 RU (resonance unit) for the other hFcgRs. The captured antibodies were washed by allowing 10 mM glycine-HCl (pH 1.5) to react for 30 seconds at a flow rate of 30 μL/min to recycle the chip for reuse.

| binding relative to G1 (=100) | Binder |
| --- | --- |
| 106 | B1 |
| 106 | B2 |
| 0 | B3 |
| 5.8 | B4 |
| 0.6 | B5 |
| -0.5 | B6 |
| -0.9 | B7 |
| -0.9 | B8 |
| 5.1 | B9 |
| -0.2 | B10 |
| 105 | B11 |
| -0.4 | B12 |
| 0.3 | B13 |
| 0.2 | B14 |
| -0.9 | B15 |
| 0.1 | B16 |
| 107 | B17 |
| 0.2 | B18 |
| 108 | B19 |
| -1.8 | B20 |
| 107 | B21 |
| 0.5 | B22 |
| 107 | B23 |

molecular target: T1, human Fcγ receptor hFcgRIIb; assay: SPR, antibody captured on Protein A
Procedure: as §1, §2

| binding relative to G1 (=100) | Binder |
| --- | --- |
| 131 | B1 |
| 242 | B2 |
| 2.5 | B3 |
| 4.5 | B5 |
| 1.5 | B6 |
| 4.2 | B7 |
| 6.2 | B8 |
| 6.9 | B10 |
| 137 | B11 |
| 4.1 | B12 |
| 226 | B24 |
| 3.6 | B14 |
| 4.6 | B15 |
| 3.8 | B16 |
| 208 | B17 |
| 4.2 | B18 |
| 232 | B19 |
| 0.3 | B20 |
| 121 | B21 |
| 114 | B23 |

molecular target: T5, human Fcγ receptor hFcgRIIIa (V) (human, UniProt P08637 17-208); assay: SPR, antibody captured on Protein A
T5 construct: also called FcγRIIIa allotype V158; FcγIIIA
T5 sequence (P08637 other isoform, or with tags, fused parts or gaps limits assumed): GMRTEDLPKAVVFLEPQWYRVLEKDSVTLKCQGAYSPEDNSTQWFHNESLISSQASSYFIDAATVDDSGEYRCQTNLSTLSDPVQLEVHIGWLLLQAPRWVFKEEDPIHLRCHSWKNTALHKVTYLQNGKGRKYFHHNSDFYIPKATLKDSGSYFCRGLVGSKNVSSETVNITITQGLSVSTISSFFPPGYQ
Procedure: as §1, §2

| binding relative to G1 (=100) | Binder |
| --- | --- |
| 91.2 | B1 |
| 0.8 | B3 |
| 1.7 | B4 |
| 0.6 | B5 |
| 0.9 | B6 |
| 1.5 | B7 |
| 1.1 | B8 |
| 1.6 | B9 |
| 1.3 | B10 |
| 92.8 | B11 |
| 1.1 | B12 |
| 0.9 | B13 |
| 137 | B24 |
| 1.2 | B14 |
| 1 | B15 |
| 1.1 | B16 |
| 134 | B17 |
| 1 | B18 |
| 107 | B19 |
| 1 | B20 |
| 124 | B21 |
| 1.5 | B22 |
| 121 | B23 |

molecular target: T2, human Fcγ receptor hFcgRIIa (H); assay: SPR, antibody captured on Protein A
Procedure: as §1, §2

| binding relative to G1 (=100) | Binder |
| --- | --- |
| 132 | B1 |
| 151 | B2 |
| 1 | B3 |
| 1.7 | B4 |
| 0.7 | B5 |
| 1 | B6 |
| 1.4 | B7 |
| -0.1 | B8 |
| 0.7 | B9 |
| 1.6 | B10 |
| 125 | B11 |
| 0.7 | B12 |
| 1.7 | B13 |
| 145 | B24 |
| -0.5 | B14 |
| 0.7 | B15 |
| 0.2 | B16 |
| 1.4 | B18 |
| 157 | B19 |
| 0.7 | B20 |
| 1.7 | B22 |
| 122 | B23 |

Molecular target: T3, human Fcγ receptor hFcgRIIa (R)
Assay: SPR, antibody captured on Protein A
Procedure: as §1, §2

| binding relative to G1 (=100) | Binder |
| --- | --- |
| 116 | B1 |
| 158 | B2 |
| 1.5 | B3 |
| 1.9 | B4 |
| 0.9 | B5 |
| 0.9 | B6 |
| 0.9 | B7 |
| 1.7 | B8 |
| 2.1 | B9 |
| 1.3 | B10 |
| 123 | B11 |
| 1 | B12 |
| 2.3 | B13 |
| 153 | B24 |
| 1.3 | B14 |
| 1.2 | B15 |
| 1.2 | B16 |
| 145 | B17 |
| 1.2 | B18 |
| 153 | B19 |
| 1.2 | B20 |
| 113 | B21 |
| 1.1 | B22 |
| 107 | B23 |

From patent publication US20200181257A1 (Chugai, published 2020)
